{
  "source": "patent US20140309172",
  "proteins": {"B1": {"name": "caspase-1 (ICE), purified, activated (protein)", "chain": "NPAMPTSSGSEGNVKLCSLEEAQRIWKQKSAEIYPIMDKSSRTRLALIICNEEFDSIPRRTGAEVDITGMTMLLQNLGYSVDVKKNLTASDMTTELEAFAHRPEHKTSDSTFLVFMSHGIREGICGKKHSEQVPDILQLNAIFNMLNTKNCPSLKDKPKVIIIQACRGDSPGVVWFKDSVGVSGNLSLPTTEEFEDDAIKKAHIEKDFIAFCSSTPDNVSWRHPTMGSVFIGRLIEHMQEYACSCDVEEIFRKVRFSFEQPDGRAQMPTTERVTLTRCFYLFPGH"}},
  "key": {"[1]": {"target": "T1, Ac-YVAD-AMC (model substrate, from Enzo, Inc.)", "T1 chain": "YVAD"}, "[2]": {"target": "alpha-synuclein (wild-type, full-length human α-synuclein)"}},
  "data": [
    {"protein": "B1", "values": [
      {"measurement": "activity against a model substrate", "setting": "[1]", "result": 110, "unit": "µM/min/mg"},
      {"measurement": "cleavage of alpha-synuclein in vitro (SDS-PAGE and western blotting with anti-synuclein antibody)", "setting": "[2]", "result": "Purified, activated caspase-1 does indeed cleave alpha-synuclein"}
    ]}
  ]
}
